The values that follow come from the RNAGym collection of RNA variant scans (doi:10.1073/pnas.2313332121).

Variants at the floor of the assay were thinned out. Bounds are passed on as bounds.

B1: TPR 5TU (parent)
chain: GGAUCUUCUCGAUCUAACAAAAAAGACAAAUCUGCCACAAAGCUUGAGAGCAUCUUCGGAUGCAGAGGCGGCAGCCUUCGGUGGCGCGAUAGCGCCAACGUUCUCAACUAUGACACGCAAAACGCGUGCUCCGUUGAAUGGAGUUUAUCAUG

Variants of B1 are the subject of the data set. Briefly: polymerase ribozyme fitness, log enrichment relative to wild type (log ratio); higher = more active; in vitro selection for triplet polymerase activity. The essentials: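 Each subunit of a heterodimeric triplet polymerase ribozyme was mutagenized into a library by PCR, transcribed, and subjected to one round of in vitro selection, run in triplicate. Libraries were annealed with a biotinylated primer, the partner subunit and triplets, incubated frozen at −7 °C, and extended constructs were gel-excised, captured on streptavidin beads and recovered by RT-PCR. Input and output libraries were sequenced on Illumina, keeping genotypes with ≥10 input reads and ≥1 read per output. Fitness is log base 2 of genotype enrichment divided by wild-type enrichment, from inverse-variance-weighted replicate averages.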
Regarding C10A A37U G48A A64G G128U A142C, the “polymerase ribozyme fitness (log ratio)” value is at most -4.2. The same measure for A89G G117U: -0.974. For the variant A30C A39U U44A U53A C93A, the “polymerase ribozyme fitness (log ratio)” value was at most -4.2. For A26G C75A G81A G140A U148C the value was at most -4.2. For A12U C14U A121U C125U the value was -0.306. Consider A89C G117U, for which the “polymerase ribozyme fitness (log ratio)” value was -0.705. For C8U A39C G59C C96U C103A C114U C116U the value was at most -4.2; for A3U G92A G136C, -4. Turning to U13C C76A U82G C85U C118G, the “polymerase ribozyme fitness (log ratio)” value is -2.92. For A12U C18U A47G C85A C93A A98C A121U the value was at most -4.2.

With C85G G88A, the “polymerase ribozyme fitness (log ratio)” value was -4.01. As for C10A G59A A91U U111A U127C A138U A150G, the “polymerase ribozyme fitness (log ratio)” value was at most -4.2. The same measure for A37C U55A C72U G88C A98G C103G U127C U134A: at most -4.2; for A22C G34U U82A C93A: at most -4.2. The same measure for A19G G86A: -1.36; for C54U A89C C131U: 0.237.

Consider A41G A89G G92U G100A G117C G133A G143U, for which the “polymerase ribozyme fitness (log ratio)” value is at most -4.2. Take G59A A106G U134A: the “polymerase ribozyme fitness (log ratio)” value is -2.03. The same measure for C36G C105U: -3.04; for G59C G68C C118G: -4.15; for U33A G58C G92A G136U: at most -4.2. The same measure for C85U C149A: at most -4.2; for U45G C93A C116U: -2.88. As for A41C A73G U145C, the “polymerase ribozyme fitness (log ratio)” value was -1.73. Turning to G11A C96G A120C U146C, the “polymerase ribozyme fitness (log ratio)” value is -1.48.

For A29C A52G C87U G100C A138U U139A A147C, the “polymerase ribozyme fitness (log ratio)” value was at most -4.2. The same measure for U31A G67U G83A C85A U104G C105U G136A: at most -4.2. Take A23C C108G A115G A138U U148C: the “polymerase ribozyme fitness (log ratio)” value is at most -4.2.

As for C57U C76G A115C A150G, the “polymerase ribozyme fitness (log ratio)” value is at most -4.2. The same measure for A91U U134G A137U: at most -4.2. On to C57A G140A, for which the “polymerase ribozyme fitness (log ratio)” value is at most -4.2. Regarding C27U G48A C69A C96A A121G, the “polymerase ribozyme fitness (log ratio)” value is at most -4.2. As for G25A C51U G92U A119U G124U, the “polymerase ribozyme fitness (log ratio)” value is -3.78. The same measure for A17U A37U G59C G81A A97G C116G: -1.87. For A40C U55G C85U, the “polymerase ribozyme fitness (log ratio)” value is 0.238. For A47C U82G A142C the value was -2.54; for G59U G94A C118U A150G, -1.69. Consider A47C C103G U135G, for which the “polymerase ribozyme fitness (log ratio)” value was at most -4.2.

On to G11U G25C C32U G50C A60G C95U, for which the “polymerase ribozyme fitness (log ratio)” value is at most -4.2. In the case of A24U G59U C87U G128A G140U U151C, the “polymerase ribozyme fitness (log ratio)” value was at most -4.2.

For the variant U33A A52G A60U G84A C95G U109G A115U G133U G140C U146G, the “polymerase ribozyme fitness (log ratio)” value is at most -4.2. The same measure for G58U C76A: 0.0806; for A26G A39G G42C A49G U55A U56A U130A U135G: at most -4.2; for A39G G42C A64U G84C C85U C103G C108U G117C A147G: at most -4.2. The same measure for G92A C116G: -2.6. The same measure for A16G A98U: -1.65. Take A16C A24C G50C C85U G143U: the “polymerase ribozyme fitness (log ratio)” value was at most -4.2. As to A12C U33A G42U A60G C93G, the “polymerase ribozyme fitness (log ratio)” value is at most -4.2. For A17U A19U C63U G68C C95U C96A G140A the value was at most -4.2; for G68A G84U C131G G143U, at most -4.2; for U6A A20C U31C C96A U127C, -1.86. As to A26U C93U G117U A137C, the “polymerase ribozyme fitness (log ratio)” value is at most -4.2.

As to C8G A41U U55G U56A G65A G70C U78A G81A C93A A122U, the “polymerase ribozyme fitness (log ratio)” value was at most -4.2. The same measure for U7C A39G C85G C105A A107U: at most -4.2; for C96A C125G: -0.535; for C5A A23G U33G A66G G83A C87U A113G G124A U127C: -3.78. The same measure for C5A U6G U82C C95G: -2.28; for G88U G126A: -2.98. For A29G G46C A47C C132U U146A the value was -4.16; for U4G A26U G50U C87A G141A A150U, at most -4.2; for C76U U78A A107U G126A, at most -4.2. As to A37C G86C, the “polymerase ribozyme fitness (log ratio)” value was -3.09.

With C5G C32U A91G A115G, the “polymerase ribozyme fitness (log ratio)” value is at most -4.2.

Take A73U G126U: the “polymerase ribozyme fitness (log ratio)” value is -0.661. For G34A A60G G94A A147G A150C, the “polymerase ribozyme fitness (log ratio)” value is at most -4.2. As to A39U C63U C75G C76A C87G C105U C129U G143C, the “polymerase ribozyme fitness (log ratio)” value is at most -4.2. For A24U A52G C79G G94A A107G, the “polymerase ribozyme fitness (log ratio)” value is at most -4.2. The same measure for U9G C18U A39G A49C C51A G94U A106G: at most -4.2; for C8A A12U U15G G62U G124A: at most -4.2; for C18U A47C C79G G88A A91C A121U U148G: at most -4.2.

As for A29U C93G, the “polymerase ribozyme fitness (log ratio)” value was at most -4.2. Regarding C14U G50C A89U C93G G143U, the “polymerase ribozyme fitness (log ratio)” value is at most -4.2. The same measure for G58A U61A C87A G117A: at most -4.2; for G70A C93A C103G: at most -4.2. Regarding C35U G74C C99U, the “polymerase ribozyme fitness (log ratio)” value is -4.12. For G46C A110G, the “polymerase ribozyme fitness (log ratio)” value is at most -4.2. The same measure for C35U G80A A91G G136A: -3.57; for A47G U55A G84U G128A: at most -4.2; for A3U A21C G62C C63U A73U C79U G84A C93G A106U U145G: at most -4.2. For A26U C85A the value was -2.68. With A39G C96U, the “polymerase ribozyme fitness (log ratio)” value is -2.18. The same measure for A24C G34A C96G G117C U135G U139A U145A: at most -4.2; for C96A U134C A138G G141C: -4.07.
